Experiment [1] addresses bovine HD1 (bovine thymus trapoxin binding proteins p46-p49) (bovine) (UniProt Q32PJ8). As to the kind of experiment: cell-based or functional assay.
Experiment [2] has the same target. Description: depletion of bovine thymus Mono Q fractions by the K-trap affinity matrix.

Sequence of bovine HD1 (bovine thymus trapoxin binding proteins p46-p49) (bovine) (Q32PJ8 whole entry): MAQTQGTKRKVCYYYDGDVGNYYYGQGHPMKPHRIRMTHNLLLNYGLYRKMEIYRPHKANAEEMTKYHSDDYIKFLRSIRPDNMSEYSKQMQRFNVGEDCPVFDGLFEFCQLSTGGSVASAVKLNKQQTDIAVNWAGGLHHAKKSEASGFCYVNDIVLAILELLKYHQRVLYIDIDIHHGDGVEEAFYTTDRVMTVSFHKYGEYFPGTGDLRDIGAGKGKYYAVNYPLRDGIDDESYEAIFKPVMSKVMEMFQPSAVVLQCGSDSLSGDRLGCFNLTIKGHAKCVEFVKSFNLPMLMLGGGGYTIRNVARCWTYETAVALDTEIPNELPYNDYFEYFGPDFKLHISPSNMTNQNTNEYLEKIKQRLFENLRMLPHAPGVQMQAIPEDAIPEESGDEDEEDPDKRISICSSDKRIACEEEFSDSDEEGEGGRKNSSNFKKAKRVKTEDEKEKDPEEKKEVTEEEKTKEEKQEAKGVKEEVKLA

For trapoxin (peptide), the inhibition of histone deacetylase activity in experiment [1] stood at 20 nM.

In experiment [2], K-trap affinity matrix (peptide) registered a percent of trapoxin binding and histone deacetylase activity depleted of 90%.

Source of the values: patent US20090221474A1.
